Laboratory results from US20060286609A1 (BIOCHECK, published 2006).
Positions count from the first letter of the chain named.

Columns and labels:
Mouse Id2: Histidine [1] = molecular target: T1, Mouse Id2: Histidine (mouse, UniProt P41136 1-134, limits assumed); assay: ELISA, coated antigen, Ab 0.100 ug/ml
T1 construct: E. coli fusion protein (vector pGW07); also called m-Id2: His; not shown: His-tag
T1 sequence (looked up): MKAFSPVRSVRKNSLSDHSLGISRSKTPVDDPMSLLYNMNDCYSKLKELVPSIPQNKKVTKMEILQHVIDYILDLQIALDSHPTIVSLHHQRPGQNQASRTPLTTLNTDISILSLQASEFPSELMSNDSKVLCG

Human Id2: Histidine [2] = molecular target: T2, Human Id2: Histidine (human, UniProt Q02363 1-134, limits assumed); assay: ELISA, coated antigen, Ab 0.100 ug/ml
T2 construct: E. coli fusion protein (vector pGW07); also called h-Id2: His; not shown: His-tag
T2 sequence (looked up): T1 sequence (looked up) with T60S, V131A

Mouse Id3: Histidine [3] = molecular target: T3, Mouse Id3: Histidine (mouse, UniProt P41133 1-119, limits assumed); assay: ELISA, coated antigen, Ab 0.100 ug/ml
T3 construct: E. coli fusion protein (vector pGW07); also called m-Id3: His; not shown: His-tag
T3 sequence (looked up): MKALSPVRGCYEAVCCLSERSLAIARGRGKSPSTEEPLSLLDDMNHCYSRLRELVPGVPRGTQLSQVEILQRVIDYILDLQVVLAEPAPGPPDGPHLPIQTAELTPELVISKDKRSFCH

Mouse Id1: Histidine [4] = molecular target: T4, Mouse Id1: Histidine (mouse, UniProt P20067-2 1-148); assay: ELISA, coated antigen, Ab 0.100 ug/ml
T4 construct: E. coli fusion protein (vector pGW07); also called m-Id1-His; not shown: His-tag
T4 sequence: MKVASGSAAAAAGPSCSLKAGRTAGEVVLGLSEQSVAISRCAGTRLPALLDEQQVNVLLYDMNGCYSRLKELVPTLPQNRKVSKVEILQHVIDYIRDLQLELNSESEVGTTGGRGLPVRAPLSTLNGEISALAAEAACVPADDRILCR

Mouse Id4: Histidine [5] = molecular target: T5, Mouse Id4: Histidine (mouse, UniProt P41139 1-161, limits assumed); assay: ELISA, coated antigen, Ab 0.100 ug/ml
T5 construct: E. coli fusion protein (vector pGW07); also called m-Id4: His; not shown: His-tag
T5 sequence (looked up): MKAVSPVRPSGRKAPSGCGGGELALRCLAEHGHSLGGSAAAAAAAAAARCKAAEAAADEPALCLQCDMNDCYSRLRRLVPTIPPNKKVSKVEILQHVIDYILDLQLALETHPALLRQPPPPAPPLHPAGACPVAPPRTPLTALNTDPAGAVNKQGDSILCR

Mouse Id2: Histidine [6] = molecular target: T1, Mouse Id2: Histidine; assay: ELISA, coated antigen, Ab 0.250 ug/ml
Human Id4: Histidine [7] = molecular target: T6, Human Id4: Histidine (human, UniProt P47928 1-161, limits assumed); assay: ELISA, coated antigen, Ab 0.250 ug/ml
T6 construct: E. coli fusion protein (vector pGW07); also called h-Id4: His; not shown: His-tag
T6 sequence (looked up): T5 sequence (looked up) with L125H, A130T, V133A

Human Id3: Histidine [8] = molecular target: T7, Human Id3: Histidine (human, UniProt Q02535 1-119, limits assumed); assay: ELISA, coated antigen, Ab 0.250 ug/ml
T7 construct: E. coli fusion protein (vector pGW07); also called h-Id3: His; not shown: His-tag
T7 sequence (looked up): T3 sequence (looked up) with S31G, S33A, T34A, K112N

Human Id2: Histidine [9] = molecular target: T2, Human Id2: Histidine; assay: ELISA, coated antigen, Ab 0.250 ug/ml
Mouse Id3: Histidine [10] = molecular target: T3, Mouse Id3: Histidine; assay: ELISA, coated antigen, Ab 0.250 ug/ml
Mouse Id1: Histidine [11] = molecular target: T4, Mouse Id1: Histidine; assay: ELISA, coated antigen, Ab 0.250 ug/ml
Mouse Id4: Histidine [12] = molecular target: T5, Mouse Id4: Histidine; assay: ELISA, coated antigen, Ab 0.250 ug/ml
Mouse Id2: Histidine [13] = molecular target: T1, Mouse Id2: Histidine; assay: ELISA, coated antigen, Ab 0.500 ug/ml
Human Id4: Histidine [14] = molecular target: T6, Human Id4: Histidine; assay: ELISA, coated antigen, Ab 0.500 ug/ml
Human Id3: Histidine [15] = molecular target: T7, Human Id3: Histidine; assay: ELISA, coated antigen, Ab 0.500 ug/ml
Human Id2: Histidine [16] = molecular target: T2, Human Id2: Histidine; assay: ELISA, coated antigen, Ab 0.500 ug/ml
Mouse Id2: Histidine [17] = molecular target: T1, Mouse Id2: Histidine; assay: ELISA, coated antigen, Ab 0.025 ug/ml
Human Id4: Histidine [18] = molecular target: T6, Human Id4: Histidine; assay: ELISA, coated antigen, Ab 0.025 ug/ml
Human Id3: Histidine [19] = molecular target: T7, Human Id3: Histidine; assay: ELISA, coated antigen, Ab 0.025 ug/ml
Human Id2: Histidine [20] = molecular target: T2, Human Id2: Histidine; assay: ELISA, coated antigen, Ab 0.025 ug/ml
Mouse Id3: Histidine [21] = molecular target: T3, Mouse Id3: Histidine; assay: ELISA, coated antigen, Ab 0.025 ug/ml
Mouse Id1: Histidine [22] = molecular target: T4, Mouse Id1: Histidine; assay: ELISA, coated antigen, Ab 0.025 ug/ml
Mouse Id4: Histidine [23] = molecular target: T5, Mouse Id4: Histidine; assay: ELISA, coated antigen, Ab 0.025 ug/ml

| A450 (Mouse Id2: Histidine [1]) | A450 (Human Id2: Histidine [2]) | A450 (Mouse Id3: Histidine [3]) | A450 (Mouse Id1: Histidine [4]) | A450 (Mouse Id4: Histidine [5]) | A450 (Mouse Id2: Histidine [6]) | A450 (Human Id4: Histidine [7]) | A450 (Human Id3: Histidine [8]) | A450 (Human Id2: Histidine [9]) | A450 (Mouse Id3: Histidine [10]) | A450 (Mouse Id1: Histidine [11]) | A450 (Mouse Id4: Histidine [12]) | A450 (Mouse Id2: Histidine [13]) | A450 (Human Id4: Histidine [14]) | A450 (Human Id3: Histidine [15]) | A450 (Human Id2: Histidine [16]) | A450 (Mouse Id2: Histidine [17]) | A450 (Human Id4: Histidine [18]) | A450 (Human Id3: Histidine [19]) | A450 (Human Id2: Histidine [20]) | Substance | also measured |
| --- | --- | --- | --- | --- | --- | --- | --- | --- | --- | --- | --- | --- | --- | --- | --- | --- | --- | --- | --- | --- | --- |
| 0.049 A450 | 0.054 A450 | 0.05 A450 | 0.068 A450 | 0.049 A450 | 0.052 A450 | 0.047 A450 | 0.048 A450 | 0.056 A450 | 0.05 A450 | 0.092 A450 | 0.053 A450 | 0.049 A450 | 0.056 A450 | 0.052 A450 | 0.062 A450 | 0.048 A450 | 0.049 A450 | 0.046 A450 | 0.049 A450 | rabbit monoclonal anti-human Id1, clone #BCH-2/#5-3 (antibody) | A450 (Mouse Id3: Histidine [21]): 0.046 A450; A450 (Mouse Id1: Histidine [22]): 0.053 A450; A450 (Mouse Id4: Histidine [23]): 0.047 A450 |
| 0.054 A450 | 0.053 A450 | 0.05 A450 | 2.04 A450 | 0.049 A450 | 0.053 A450 | 0.048 A450 | 0.052 A450 | 0.057 A450 | 0.049 A450 | 2.57 A450 | 0.048 A450 | 0.057 A450 | 0.048 A450 | 0.053 A450 | 0.072 A450 | 0.049 A450 | 0.045 A450 | 0.047 A450 | 0.05 A450 | rabbit monoclonal anti-mouse/human Id1, clone #BCH-1/#195-14 (antibody) | A450 (Mouse Id3: Histidine [21]): 0.047 A450; A450 (Mouse Id1: Histidine [22]): 0.876 A450; A450 (Mouse Id4: Histidine [23]): 0.046 A450 |
